{
  "source": "paper PMC3683064",
  "about": "(PLoS ONE, 2013)",
  "molecules": {"B1": {"name": "Lcc4A (Lentinula edodes) (protein)", "chain": "LDIIRNNGVLQIVNKELSPDGFSRPTVLAGTSAGSATFPGPLIQGNKGDTFNIDVVDSLTDTTMNRTTSIHWHGLFQEHTNWADGPSFVTQCPIAPGNSFLYRFAVPDQAGTYWYHSHLGVQYCDGLRGPFVVYDPHDPQAYMYDVDDENTVITLADWYHPKAFQVLAHGAAVSNATLINGQGRYPGGPDASLAVVNVQAGKRYRFRLISMSCDPNYLFSIDGHNLTVIESDGVSTTPVTVNQIQIYAAQRYSFVLTANQPVGNYWIRASPNTQLAGTPANDPFANGINSAILRYNGAPNADPVTIAPSSSGVIGITESLMHPLQNPGAPGSPYPGGAHVINMTLGFNAGAFTINNYSFVSPSVPVLLQILSGTQQVQNLLPEGSVFGLQKNEVYEININGGTAPGGPHPFHLHGHNFDVIKSFDSSEYNFKNPVRRDTTPVAAGETTTIRFVTDNPGPWFLHCHIDFHLAAGLAVVMAEDVPDVKSNNLVPLEWDALCPIYDNLKPDQL", "notes": "full cDNA ORF (527 residues) in pPIC3.5K, secreted from Pichia pastoris GS115 and purified; signal peptide predicted"}, "B2": {"name": "Lcc7 (Lentinula edodes) (protein)", "chain": "GDFGKVFVSGAEVIKIGGKVHSENLFVVNRELSPDGFERSTVLAGLSSQNGTFPGPLITGTKGDRFQINVTDLLTDSTMARSTSIHWHGLFQKTTNYADGVSFVSQCPIVANHSFMYDFQVPDQAGTFWYHSHLSVQYCDGLRGPIVIYDPLDPHRFLYDVDDESTVITIADWYHDTSYELIAKRAGLTPDATLINGKGRYVGGPNIPLEVINVEYGKRYRFRVISMSCGVDHGFSIDGHDLTIIEVDGVNTQPLTVNHIQLYAAQRYSVVLHANQKPDVYRIRALATSGVGAQNFTNGVNSGILRYKNAAGNSDRGPTSSQQSHMVSLNENDLRPLECPGAPGKPYPGGADLVLNLTMGFGVAPGASAPSFFMNNVSYVSPKVPVLLQILSGAQSAQDLLPAGSVYTLPRNKVIEINLLGGSAIGGPHPFHLHGHAFDVVKTSSSSDYNFVDPVRRDVTLVNQNGQTTIRFLTDNPGPWFLHCHIDPHLEAGLAVVLAEDTRDTKSNDPVPAGWDTLCPIYDSLTPDQLP", "notes": "full cDNA ORF (560 residues) in pPIC3.5K, secreted from Pichia pastoris GS115 and purified; signal peptide predicted"}, "B3": {"name": "Lcc5 (Lentinula edodes) (protein)", "chain": "VLETTGDLVISNAAVSPDGFSRTAVLAGGGVVGELVTGNKGDNFQINVVNELTDDTMLRSTTVHWHGIFQEGTNWADGPAFINQCPIAANNSFLYDFTVSDQAGTFWYHSHLSTQYCDGLRGALVIYDPDDPYADLYDVDDDTTVLSLMDWYHEKAETLTFPFPDATLINGLGRYSGGNATDLSVITVTSGTRYRFRLVNLACDPNFVFSIDNHTMTVIEADGVNHEQLVVDSVQIFAGQRYSFILEANQSVDNYWIRADPSTGTSGYAGGINSAILRYSGAADSEPGTPEVTSVLALNETQLVPLENPGAPGEPEVGGVDYALNLAMAFTGTAFTINGYSFTSPTVPVLLQILSGAETADSLLPAGSVYSLPTNSTIEISIPSGGLAGFPHPFHLHGHTFDVVRSAGSTTYNYANPARRDVVSTGAAGDNVIIRFTTDNAGPWFLHCHIDWHLEAGLAIVFAEDVADWNTTQTPSTAWDDLCPIYDALSADQL", "notes": "full cDNA ORF (515 residues) in pPIC3.5K, secreted from Pichia pastoris GS115 and purified; signal peptide predicted"}},
  "key": {"Lcc5": {"biological_target": "T1, Lcc5 (Lentinula edodes, UniProt R9WU11)", "T1 construct": "full cDNA ORF (515 residues) in pPIC3.5K, secreted from Pichia pastoris GS115 and purified; signal peptide predicted", "T1 sequence (R9WU11 22-515)": "B3 chain", "experiment": "ABTS oxidation in presence of co-solvent", "assay_type": "biochemical", "settings": "1 mM ABTS, 1x McIlvaine buffer pH 4, 30 °C; co-solvent effect, non-specific", "from_the_text": "ABTS oxidation in presence of co-solvent on Lcc5"}, "Lcc7": {"biological_target": "T2, Lcc7 (Lentinula edodes, UniProt R9WS76)", "T2 construct": "full cDNA ORF (560 residues) in pPIC3.5K, secreted from Pichia pastoris GS115 and purified; signal peptide predicted", "T2 sequence (R9WS76 30-560)": "B2 chain", "experiment": "ABTS oxidation in presence of co-solvent", "assay_type": "biochemical", "settings": "1 mM ABTS, 1x McIlvaine buffer pH 4, 30 °C; co-solvent effect, non-specific", "from_the_text": "ABTS oxidation in presence of co-solvent on Lcc7"}, "Lcc4A": {"biological_target": "T3, Lcc4A (Lentinula edodes, UniProt R9WT55)", "T3 construct": "full cDNA ORF (527 residues) in pPIC3.5K, secreted from Pichia pastoris GS115 and purified; signal peptide predicted", "T3 sequence (R9WT55 18-527)": "B1 chain", "experiment": "ABTS oxidation in presence of co-solvent", "assay_type": "biochemical", "settings": "1 mM ABTS, 1x McIlvaine buffer pH 4, 30 °C; co-solvent effect, non-specific", "from_the_text": "ABTS oxidation in presence of co-solvent on Lcc4A"}, "purified protein [1]": {"substrate": "COc1ccccc1O", "experiment": "purified protein", "settings": "1x McIlvaine buffer pH 4, 30 °C"}, "purified protein [2]": {"substrate": "CCn1c(=NN=c2sc3cc(S(=O)(=O)O)ccc3n2CC)sc2cc(S(=O)(=O)O)ccc21", "experiment": "purified protein", "assay_type": "biochemical, Lentinula edodes", "settings": "1x McIlvaine buffer pH 4, 30 °C"}, "[3]": {"substrate": "N[C@@H](Cc1ccc(O)c(O)c1)C(=O)O", "experiment": "spectrophotometric oxidation assay", "assay_type": "biochemical, Lentinula edodes", "settings": "1x McIlvaine buffer pH 4, 30 °C", "from_the_text": "(§1) spectrophotometric oxidation assay on Lcc4A"}, "[4]": {"substrate": "COc1cccc(OC)c1O", "experiment": "spectrophotometric oxidation assay", "assay_type": "biochemical, Lentinula edodes", "settings": "1x McIlvaine buffer pH 4, 30 °C", "from_the_text": "as §1"}, "[5]": {"substrate": "Oc1ccccc1O", "experiment": "spectrophotometric oxidation assay", "assay_type": "biochemical, Lentinula edodes", "settings": "1x McIlvaine buffer pH 4, 30 °C", "from_the_text": "as §1"}, "[6]": {"substrate": "COc1cccc(OC)c1O", "experiment": "spectrophotometric oxidation assay", "assay_type": "biochemical, Lentinula edodes", "settings": "1x McIlvaine buffer pH 4, 30 °C", "from_the_text": "(§2) spectrophotometric oxidation assay on Lcc7", "remark": "listed apart in the source"}, "[7]": {"substrate": "Oc1ccccc1O", "experiment": "spectrophotometric oxidation assay", "assay_type": "biochemical, Lentinula edodes", "settings": "1x McIlvaine buffer pH 4, 30 °C", "from_the_text": "as §2", "remark": "listed apart in the source"}, "[8]": {"substrate": "N[C@@H](Cc1ccc(O)c(O)c1)C(=O)O", "experiment": "spectrophotometric oxidation assay", "assay_type": "biochemical, Lentinula edodes", "settings": "1x McIlvaine buffer pH 4, 30 °C", "from_the_text": "(§3) spectrophotometric oxidation assay on Lcc5", "remark": "listed apart in the source"}, "[9]": {"substrate": "COc1cccc(OC)c1O", "experiment": "spectrophotometric oxidation assay", "assay_type": "biochemical, Lentinula edodes", "settings": "1x McIlvaine buffer pH 4, 30 °C", "from_the_text": "as §3", "remark": "listed apart in the source"}, "[10]": {"substrate": "Oc1ccccc1O", "experiment": "spectrophotometric oxidation assay", "assay_type": "biochemical, Lentinula edodes", "settings": "1x McIlvaine buffer pH 4, 30 °C", "from_the_text": "as §3", "remark": "listed apart in the source"}},
  "data": [
    {"molecule": "CCO", "note": "[EtOH]", "values": [
      {"measurement": "IC50 ^d (v/v %) / ACN", "setting": "Lcc5", "result": 18, "unit": "v/v %"},
      {"measurement": "IC50 ^d (v/v %) / EtOH", "setting": "Lcc7", "result": 22, "unit": "v/v %"}
    ]},
    {"molecule": "CO", "note": "[MeOH]", "values": [
      {"measurement": "IC50 ^d (v/v %) / MeOH", "setting": "Lcc4A", "result": 28, "unit": "v/v %"}
    ]},
    {"molecule": "CC#N", "note": "[ACN]", "values": [
      {"measurement": "IC50 ^d (v/v %) / ACN", "setting": "Lcc4A", "result": 30, "unit": "v/v %"},
      {"measurement": "IC50 ^d (v/v %) / ACN", "setting": "Lcc5", "result": 18, "unit": "v/v %"},
      {"measurement": "IC50 ^d (v/v %) / ACN", "setting": "Lcc7", "result": 17, "unit": "v/v %"}
    ]},
    {"molecule": "B1", "values": [
      {"measurement": "Km", "setting": "purified protein [1]", "result": "648 ± 105", "unit": "µM"},
      {"measurement": "Vmax", "setting": "purified protein [1]", "result": 0.16, "unit": "µmol/min/mg"},
      {"measurement": "Vmax/Km", "setting": "purified protein [1]", "result": 246, "unit": "µL/min/mg"},
      {"measurement": "Km", "setting": "purified protein [2]", "result": "11.2 ± 0.9", "unit": "µM"},
      {"measurement": "Vmax", "setting": "purified protein [2]", "result": 0.61, "unit": "µmol/min/mg"},
      {"measurement": "Vmax/Km", "setting": "purified protein [2]", "result": 54400, "unit": "µL/min/mg"},
      {"measurement": "Km", "setting": "[3]", "result": "1040 ± 150", "unit": "µM"},
      {"measurement": "Vmax", "setting": "[3]", "result": 1.07, "unit": "µmol/min/mg"},
      {"measurement": "Vmax/Km", "setting": "[3]", "result": 1030, "unit": "µL/min/mg"},
      {"measurement": "Km", "setting": "[4]", "result": "26.0 ± 2.4", "unit": "µM"},
      {"measurement": "Vmax", "setting": "[4]", "result": 0.26, "unit": "µmol/min/mg"},
      {"measurement": "Vmax/Km", "setting": "[4]", "result": 10000, "unit": "µL/min/mg"},
      {"measurement": "Km", "setting": "[5]", "result": "255 ± 76", "unit": "µM"},
      {"measurement": "Vmax", "setting": "[5]", "result": 0.91, "unit": "µmol/min/mg"},
      {"measurement": "Vmax/Km", "setting": "[5]", "result": 3720, "unit": "µL/min/mg"}
    ]},
    {"molecule": "B2", "values": [
      {"measurement": "Km", "setting": "[6]", "result": "12000 ± 1000", "unit": "µM"},
      {"measurement": "Vmax", "setting": "[6]", "result": 1.73, "unit": "µmol/min/mg"},
      {"measurement": "Vmax/Km", "setting": "[6]", "result": 144, "unit": "µL/min/mg"},
      {"measurement": "Km", "setting": "[7]", "result": "38800 ± 5300", "unit": "µM"},
      {"measurement": "Vmax", "setting": "[7]", "result": 0.53, "unit": "µmol/min/mg"},
      {"measurement": "Vmax/Km", "setting": "[7]", "result": 13.8, "unit": "µL/min/mg"},
      {"measurement": "Km", "setting": "purified protein [1]", "result": "8630 ± 2120", "unit": "µM"},
      {"measurement": "Vmax", "setting": "purified protein [1]", "result": 0.18, "unit": "µmol/min/mg"},
      {"measurement": "Vmax/Km", "setting": "purified protein [1]", "result": 21.4, "unit": "µL/min/mg"},
      {"measurement": "Km", "setting": "purified protein [2]", "result": "36.3 ± 1.9", "unit": "µM"},
      {"measurement": "Vmax", "setting": "purified protein [2]", "result": 19.7, "unit": "µmol/min/mg"},
      {"measurement": "Vmax/Km", "setting": "purified protein [2]", "result": 543000, "unit": "µL/min/mg"}
    ]},
    {"molecule": "B3", "values": [
      {"measurement": "Km", "setting": "[8]", "result": "10500 ± 700", "unit": "µM"},
      {"measurement": "Vmax", "setting": "[8]", "result": 1.66, "unit": "µmol/min/mg"},
      {"measurement": "Vmax/Km", "setting": "[8]", "result": 158, "unit": "µL/min/mg"},
      {"measurement": "Km", "setting": "[9]", "result": "113 ± 8", "unit": "µM"},
      {"measurement": "Vmax", "setting": "[9]", "result": 0.6, "unit": "µmol/min/mg"},
      {"measurement": "Vmax/Km", "setting": "[9]", "result": 5300, "unit": "µL/min/mg"},
      {"measurement": "Km", "setting": "[10]", "result": "6280 ± 680", "unit": "µM"},
      {"measurement": "Vmax", "setting": "[10]", "result": 2.65, "unit": "µmol/min/mg"},
      {"measurement": "Vmax/Km", "setting": "[10]", "result": 424, "unit": "µL/min/mg"},
      {"measurement": "Km", "setting": "purified protein [1]", "result": "1270 ± 90", "unit": "µM"},
      {"measurement": "Vmax", "setting": "purified protein [1]", "result": 0.32, "unit": "µmol/min/mg"},
      {"measurement": "Vmax/Km", "setting": "purified protein [1]", "result": 257, "unit": "µL/min/mg"},
      {"measurement": "Km", "setting": "purified protein [2]", "result": "325 ± 47", "unit": "µM"},
      {"measurement": "Vmax", "setting": "purified protein [2]", "result": 2.26, "unit": "µmol/min/mg"},
      {"measurement": "Vmax/Km", "setting": "purified protein [2]", "result": 6940, "unit": "µL/min/mg"}
    ]}
  ]
}
